# Measurements as given in paper PMC3601957, “Structural Basis of Rap Phosphatase Inhibition by Phr Peptides” (PLoS Biology, 2013).
# B1: RapF [B. subtilis] / PhrC [B. subtilis] (parent)
# chain 1: MTGVISSSSIGEKINEWYMYIRRFSIPDAEYLRREIKQELDQMEEDQDLHLYYSLMEFRHNLMLEYLEPLEKMRIEEQPRLSDLLLEIDKKQARLTGLLEYYFNFFRGMYELDQREYLSAIKFFKKAESKLIFVKDRIEKAEFFFKMSESYYYMKQTYFSMDYARQAYEIYKEHEAYNIRLLQCHSLFATNFLDLKQYEDAISHFQKAYSMAEAEKQPQLMGRTLYNIGLCKNSQSQYEDAIPYFKRAIAVFEESNILPSLPQAYFLITQIHYKLGKIDKAHEYHSKGMAYSQKAGDVIYLSEFEFLKSLYLSGPDEEAIQGFFDFLESKMLYADLEDFAIDVAKYYHERKNFQKASAYFLKVEQVRQLIQGGVSLYEIEV
# chain 2: ERGMT
# B2: RapF [B. subtilis] / PhrF [B. subtilis] (parent)
# chain 1: B1 chain 1
# chain 2: QRGMI
# Variants of: B1
# Assay: thermal-shift assay (Sypro orange fluorescence)
# Settings: with PhrC [B. subtilis], printed Tm without peptide: mutant 51.3 °C, wild type 49.5 °C
row,screen value [°C],Variant
1,53.8,chain 1 MTGVISSSSIGEKINEWYMYIRRFSIPDAEYLRREIKQELDQMEEDQDLHLYYSLMEFRHNLMLEYLEPLEKMRIEEQPRLSDLLLEIDKKQARLTGLLEYYFNFFRGMYELDQREYLSAIKFFKKAESKLIFVKDRIEKAEFFFKMSESYYYMKQTYFSMDYARQAYEIYKEHEAYNIRLLQCHSLFATNFLDLKQYEDAISHFQKAYSMAEAEKQPQLMGRTLYNIGLCKNSQSQYEDAIPYFKRAIAVFEESNILPSLPQAYFLITQIHYKLGKIDKAHEYHSKGMAYSQKAGDVIYLSAFEFLKSLYLSGPDEEAIQGFFDFLESKMLYADLEDFAIDVAKYYHERKNFQKASAYFLKVEQVRQLIQGGVSLYEIEV [chain 1 E303A]

# Same assay, conditions: with PhrC [B. subtilis], printed Tm without peptide: mutant 50.1 °C, wild type 49.5 °C
row,screen value [°C],Variant
1,49.2,chain 1 MTGVISSSSIGEKINEWYMYIRRFSIPDAEYLRREIKQELDQMEEDQDLHLYYSLMEFRHNLMLEYLEPLEKMRIEEQPRLSDLLLEIDKKQARLTGLLEYYFNFFRGMYELDQREYLSAIKFFKKAESKLIFVKDRIEKAEFFFKMSESYYYMKQTYFSMDYARQAYEIYKEHEAYNIRLLQCHSLFATNFLDLKQYEDAISHFQKAYSMAEAEKQPQLMGRTLYAIGLCKNSQSQYEDAIPYFKRAIAVFEESNILPSLPQAYFLITQIHYKLGKIDKAHEYHSKGMAYSQKAGDVIYLSEFEFLKSLYLSGPDEEAIQGFFDFLESKMLYADLEDFAIDVAKYYHERKNFQKASAYFLKVEQVRQLIQGGVSLYEIEV [chain 1 N227A]

# Same assay, conditions: with PhrC [B. subtilis], printed Tm without peptide: mutant 53.4 °C, wild type 49.5 °C
row,screen value [°C],Variant
1,52.3,chain 1 MTGVISSSSIGEKINEWYMYIRRFSIPDAEYLRREIKQELDQMEEDQDLHLYYSLMEFRHNLMLEYLEPLEKMRIEEQPRLSDLLLEIDKKQARLTGLLEYYFNFFRGMYELDQREYLSAIKFFKKAESKLIFVKDRIEKAEFFFKMSESYYYMKQTYFSMDYARQAYEIYKEHEAYNIRLLQCHSLFATNFLALKQYEDAISHFQKAYSMAEAEKQPQLMGRTLYNIGLCKNSQSQYEDAIPYFKRAIAVFEESNILPSLPQAYFLITQIHYKLGKIDKAHEYHSKGMAYSQKAGDVIYLSEFEFLKSLYLSGPDEEAIQGFFDFLESKMLYADLEDFAIDVAKYYHERKNFQKASAYFLKVEQVRQLIQGGVSLYEIEV [chain 1 D194A]

# Variants of: B2
# Assay: thermal-shift assay (Sypro orange fluorescence)
# Settings: with PhrF [B. subtilis], printed Tm without peptide: mutant 50.1 °C, wild type 49.5 °C
row,screen value [°C],Variant
1,49.2,chain 1 MTGVISSSSIGEKINEWYMYIRRFSIPDAEYLRREIKQELDQMEEDQDLHLYYSLMEFRHNLMLEYLEPLEKMRIEEQPRLSDLLLEIDKKQARLTGLLEYYFNFFRGMYELDQREYLSAIKFFKKAESKLIFVKDRIEKAEFFFKMSESYYYMKQTYFSMDYARQAYEIYKEHEAYNIRLLQCHSLFATNFLDLKQYEDAISHFQKAYSMAEAEKQPQLMGRTLYAIGLCKNSQSQYEDAIPYFKRAIAVFEESNILPSLPQAYFLITQIHYKLGKIDKAHEYHSKGMAYSQKAGDVIYLSEFEFLKSLYLSGPDEEAIQGFFDFLESKMLYADLEDFAIDVAKYYHERKNFQKASAYFLKVEQVRQLIQGGVSLYEIEV [chain 1 N227A]

# Same assay, conditions: with PhrF [B. subtilis], printed Tm without peptide: mutant 53.4 °C, wild type 49.5 °C
row,screen value [°C],Variant
1,53.3,chain 1 MTGVISSSSIGEKINEWYMYIRRFSIPDAEYLRREIKQELDQMEEDQDLHLYYSLMEFRHNLMLEYLEPLEKMRIEEQPRLSDLLLEIDKKQARLTGLLEYYFNFFRGMYELDQREYLSAIKFFKKAESKLIFVKDRIEKAEFFFKMSESYYYMKQTYFSMDYARQAYEIYKEHEAYNIRLLQCHSLFATNFLALKQYEDAISHFQKAYSMAEAEKQPQLMGRTLYNIGLCKNSQSQYEDAIPYFKRAIAVFEESNILPSLPQAYFLITQIHYKLGKIDKAHEYHSKGMAYSQKAGDVIYLSEFEFLKSLYLSGPDEEAIQGFFDFLESKMLYADLEDFAIDVAKYYHERKNFQKASAYFLKVEQVRQLIQGGVSLYEIEV [chain 1 D194A]
